Measured values from US20250326818A1 (UNIVERSIT T BASEL, published 2025).

Assays:
Experiment in all cases: BLI (Octet), biotinylated CD123 ECD captured on streptavidin tips, hIL3 as analyte, level at 250 s normalised to loading
CD123 ECD E51K = target: T1, CD123 ECD E51K (human, UniProt P26951 19-305)
T1 construct: Recombinant ECD
T1 sequence: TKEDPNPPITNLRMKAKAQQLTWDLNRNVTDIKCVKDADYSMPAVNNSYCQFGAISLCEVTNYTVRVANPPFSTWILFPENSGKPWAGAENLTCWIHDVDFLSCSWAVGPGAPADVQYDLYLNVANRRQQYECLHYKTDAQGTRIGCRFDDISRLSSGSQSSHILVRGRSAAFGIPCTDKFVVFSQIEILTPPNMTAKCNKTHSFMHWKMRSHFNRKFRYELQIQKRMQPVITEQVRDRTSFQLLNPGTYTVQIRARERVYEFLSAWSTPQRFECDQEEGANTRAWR
Experimental: (§1) Binding of hIL3 (SinoBiological, PN: 11858-H08H) (analyte) to CD123 ECD wt. and variants (ligands) was performed using Streptavidin capture biosensor (SA) (Sartorius, PN: 18-5019). CD123 ECD wt. and variants were biotinylated using Biotinylation kit Type B (Abeam, PN: ab201796) following manufacturer instructions. Biotinylated CD123 ECD wt. and variants (ligands) were captured on SA tips for 1000 s to achieve a nm shift of 1.5 to 2 nm. Analyte hIL3 was titrated at 7 concentrations from 500 to 7.8 nM. Association to analyte was monitored for 300 s and dissociation for 120 s. Buffer only well was used as reference. No regeneration was performed, and a new set of tips was used for each biotinylated captured ligand. Data were analyzed using the Octet Data Analysis software HT 12.0. Due to the fast on/off nature of the interaction data were analyzed using Steady state analysis. Qualitative representation in FIG. 11 binding level were taken at 250 s association for all concentrations.

CD123 ECD S59Y = target: T2, CD123 ECD S59Y (human, UniProt P26951 19-305)
T2 construct: Recombinant ECD
T2 sequence: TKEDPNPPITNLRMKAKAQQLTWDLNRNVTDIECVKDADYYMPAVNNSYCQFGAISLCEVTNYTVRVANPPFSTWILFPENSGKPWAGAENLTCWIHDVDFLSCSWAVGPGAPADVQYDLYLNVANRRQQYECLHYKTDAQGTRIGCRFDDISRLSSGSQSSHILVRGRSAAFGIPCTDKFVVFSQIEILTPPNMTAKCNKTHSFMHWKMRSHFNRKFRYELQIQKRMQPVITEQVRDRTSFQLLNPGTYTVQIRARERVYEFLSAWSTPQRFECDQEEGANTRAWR
Experimental: as §1

CD123 ECD S59P = target: T3, CD123 ECD S59P (human, UniProt P26951 19-305)
T3 construct: Recombinant ECD
T3 sequence: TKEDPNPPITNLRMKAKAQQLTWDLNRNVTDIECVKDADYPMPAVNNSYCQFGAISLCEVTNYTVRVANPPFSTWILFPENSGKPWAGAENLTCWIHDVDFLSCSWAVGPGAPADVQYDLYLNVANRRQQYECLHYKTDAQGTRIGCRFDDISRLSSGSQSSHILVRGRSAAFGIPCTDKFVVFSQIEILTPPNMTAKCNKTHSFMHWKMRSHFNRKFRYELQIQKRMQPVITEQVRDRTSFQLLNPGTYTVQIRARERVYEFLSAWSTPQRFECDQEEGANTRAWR
Experimental: as §1

CD123 ECD S59E = target: T4, CD123 ECD S59E (human, UniProt P26951 19-305)
T4 construct: Recombinant ECD
T4 sequence: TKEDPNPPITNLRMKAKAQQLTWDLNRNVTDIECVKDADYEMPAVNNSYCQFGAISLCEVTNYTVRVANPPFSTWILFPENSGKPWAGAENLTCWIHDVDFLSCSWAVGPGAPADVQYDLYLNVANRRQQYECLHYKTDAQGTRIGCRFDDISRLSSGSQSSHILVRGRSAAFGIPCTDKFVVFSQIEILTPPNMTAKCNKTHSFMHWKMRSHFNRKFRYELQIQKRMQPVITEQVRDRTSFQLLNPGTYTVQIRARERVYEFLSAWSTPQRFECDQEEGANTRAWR
Experimental: as §1

CD123 ECD E51Q = target: T5, CD123 ECD E51Q (human, UniProt P26951 19-305)
T5 construct: Recombinant ECD
T5 sequence: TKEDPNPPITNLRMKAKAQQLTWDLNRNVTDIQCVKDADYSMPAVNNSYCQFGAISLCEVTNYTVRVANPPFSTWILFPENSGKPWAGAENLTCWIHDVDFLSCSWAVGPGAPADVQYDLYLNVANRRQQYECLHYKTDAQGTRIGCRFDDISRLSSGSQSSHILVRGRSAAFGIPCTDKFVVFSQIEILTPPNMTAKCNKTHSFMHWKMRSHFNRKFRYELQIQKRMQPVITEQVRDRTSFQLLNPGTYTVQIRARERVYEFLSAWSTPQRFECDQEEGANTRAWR
Experimental: as §1

CD123 ECD S59F = target: T6, CD123 ECD S59F (human, UniProt P26951 19-305)
T6 construct: Recombinant ECD
T6 sequence: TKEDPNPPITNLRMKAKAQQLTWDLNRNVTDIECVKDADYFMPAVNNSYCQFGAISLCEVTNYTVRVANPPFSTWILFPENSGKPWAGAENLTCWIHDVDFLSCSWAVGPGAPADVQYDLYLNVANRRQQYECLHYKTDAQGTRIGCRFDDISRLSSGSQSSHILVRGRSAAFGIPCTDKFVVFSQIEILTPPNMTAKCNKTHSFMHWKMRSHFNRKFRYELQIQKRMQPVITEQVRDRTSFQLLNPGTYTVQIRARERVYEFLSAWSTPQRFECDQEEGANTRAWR
Experimental: as §1

Measured: binding result

B1: hIL3 (ligand, human, UniProt P08700 20-152, looked up)
chain: APMTQTTPLKTSWVNCSNMIDEIITHLKQPPLPLLDFNNLNGEDQDILMENNLRRPNLEAFNRAVKSLQNASAIESILKNLLPCLPLATAAPTRHPIHIKDGDWNEFRRKLTFYLKTLENAQAQQTTLSLAIF
notes: also called Interleukin-3
binds: all assays above
